Target: human RANK, full length, expressed in or on cells (human) (UniProt Q9Y6Q6)
Test: cell-based or functional assay

Chain of UniProt Q9Y6Q6 (Q9Y6Q6 26-616): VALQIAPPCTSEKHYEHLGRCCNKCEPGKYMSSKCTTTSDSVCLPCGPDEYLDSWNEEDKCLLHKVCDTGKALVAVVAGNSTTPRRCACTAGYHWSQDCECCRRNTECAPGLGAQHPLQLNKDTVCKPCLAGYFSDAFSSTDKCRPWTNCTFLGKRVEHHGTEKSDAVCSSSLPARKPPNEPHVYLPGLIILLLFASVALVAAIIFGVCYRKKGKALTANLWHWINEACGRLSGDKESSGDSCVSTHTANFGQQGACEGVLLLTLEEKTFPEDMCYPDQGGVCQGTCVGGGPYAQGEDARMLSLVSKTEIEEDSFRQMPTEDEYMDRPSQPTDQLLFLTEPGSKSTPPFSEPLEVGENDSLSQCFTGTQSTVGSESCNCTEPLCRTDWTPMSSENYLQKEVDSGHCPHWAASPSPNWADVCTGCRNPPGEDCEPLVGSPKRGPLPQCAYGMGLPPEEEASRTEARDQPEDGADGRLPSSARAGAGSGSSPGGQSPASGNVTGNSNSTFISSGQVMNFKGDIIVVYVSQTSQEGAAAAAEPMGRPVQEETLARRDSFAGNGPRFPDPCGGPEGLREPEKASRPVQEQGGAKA

allo-stimulatory capacity of CD1a+ DC in a mixed lymphocyte reaction (MLR): > 10 fold
Substance: RANKL as added to human dendritic cell cultures (Example 13; species and construct not stated) (ligand)

Source: patent US6838262
